# Patent US20240117011A1
# Biological target: full-length SARS-CoV-2 spike, WA-1 / Wuhan-1 (S wt) (SARS-CoV-2) (UniProt P0DTC2)
# Test: cell-based or functional assay
substance,measurement,value
LY-CoV555 (antibody),pseudotyped virus neutralization IC50,0.0071 µg/mL
same,pseudotyped virus neutralization IC80,0.0357 µg/mL
